In article PMC2187830 (The Journal of Experimental Medicine, 1990):

Tests used:
murine IL-7 receptor [1] = biological target: T1, murine IL-7 receptor (mouse (endogenous in IxN/2b), UniProt P16872 21-459); assay: radioligand binding
T1 sequence: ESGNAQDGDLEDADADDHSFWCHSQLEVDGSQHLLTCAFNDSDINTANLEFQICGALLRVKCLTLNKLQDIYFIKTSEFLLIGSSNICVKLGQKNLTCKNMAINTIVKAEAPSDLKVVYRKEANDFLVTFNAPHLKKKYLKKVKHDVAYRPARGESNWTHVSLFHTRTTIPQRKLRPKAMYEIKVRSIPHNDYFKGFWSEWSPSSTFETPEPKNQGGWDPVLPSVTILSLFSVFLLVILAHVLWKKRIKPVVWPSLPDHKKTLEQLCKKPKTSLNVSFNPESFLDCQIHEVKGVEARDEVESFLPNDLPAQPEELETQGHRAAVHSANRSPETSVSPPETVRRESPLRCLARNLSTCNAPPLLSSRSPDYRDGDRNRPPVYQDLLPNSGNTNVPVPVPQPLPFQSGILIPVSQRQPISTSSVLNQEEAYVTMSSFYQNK

murine IL-7 receptor [2] = biological target: T1, murine IL-7 receptor; assay: radioligand binding; remark: listed apart in the source

B1: 125I-labeled recombinant murine IL-7 (ligand)
chain: ECHIKDKEGKAYESVLMISIDELDKMTGTDSNCPNNEPNFFRKHVCDDTKEAAFLNRAARKLKQFLKMNISEEFNVHLLTVSQGTQTLVNCTSKEEKNVKEQKKNDACFLKRLLREIKTCWNKILKGSI
modifications: 125I on the single tyrosine residue (amino acid 12), nearly quantitatively radiolabeled
In the case of B1, the “apparent Ka, high affinity component” value (murine IL-7 receptor [1]) is reported as 1.2e+10 M⁻¹ and the “apparent Ka, low affinity component” value (murine IL-7 receptor [2]) is reported as 4.8e+08 M⁻¹.
